Source: US20120100132A1 (INDUSTRIAL TECHNOLOGY RESEARCH INSTITUTE, published 2012)

Molecular target: T1, uncleavable form of transmembrane TNF-α (deletion mutant, amino acids +1 through +12 deleted) expressed on … (UniProt P01375 1-233)
T1 construct: whole, on cells; The deletion of +1 to +12 cannot be written as substitutions, so it is described under detail; also called deletion mutant transmembrane TNF-α resistant to TACE-mediated cleavage
Assay: flow cytometry saturation binding on transmembrane TNF-α-transfected NS0 cells
Description: Transmembrane TNF-α-transfected NS0 cells were incubated with serial log dilutions of m357-IgG (∘) or h357-IgG antibodies for 1 hr at 4° C. The cells were washed and incubated with Alexa Fluor 488 goat anti-mouse IgG (H+L) for m357-IgG and Alexa Fluor 647 goat anti-human IgG (H+L) for h357-IgG, respectively for 1 hr at 4° C. The cell were then washed and analyzed by a FACSCalibur flow cytometer; and
Transmembrane TNF-α transfected NS0 cells were incubated with serial log dilutions of m357 IgG and h357 IgG for 1 hour at 4° C. in phosphate buffered saline (PBS) containing 2% of a fetal bovine serum (fluorescence-activated cell sorting [FACS] buffer). Cells were washed with a FACS buffer 3 times and were then stained with an Alexa Fluor 488 goat anti-mouse IgG (H+L) for m357 IgG and an Alexa Fluor 647 goat anti-human IgG (H+L) for h357 IgG, respectively for 1 hour at 4° C. Fluorescence intensities were measured using a FACSCalibur flow cytometer (Becton Dickinson, San Jose, Calif.).
TNF-α exists as a membrane associated precursor (transmembrane TNF-α) from which a mature soluble form is released by proteolytic cleavage mediated by the TNF-α converting enzyme (TACE). […]

B1: m357 IgG (murine anti-human TNF-α monoclonal antibody from hybridoma 357-104-4, ECACC No. 92030603) (antibody, V domains shown)
VH: VKLQESGGGWVQPGGSMKLSCIASGFTFSNYWMNWVRQSPEKGLEWVAEVRLQSDNFTTHYAESVKGRFTISRDDSKSGVYLQMNNLGAEDTGIYYCTPFAYWGQGTTVTVSS
VL: EIVLTQSPPITSASPGEKVTMTCSASSSVSFMYWYQQKPGSSPRLLIYDASILASGVPVRFSGSGSGTSYSLTISRMEAEDVATYYCQQWSDYSPRTFGGGTKLEIK
notes: Whole murine IgG; also called m35-IgG
Which Kd does the source give for B1 here?
Its Kd is 12 nM.
